Measured values from patent US6884600B1, “Protein phosphatase-1 catalytic subunit interactions” (Medical Research Council London, priority 1996, dated 2005).
Read-outs that look alike come from different tables or passages of the source.

Experiments:
M21 subunit = test: Far Western blotting: interaction with the M21 subunit; assay type: binding, chicken; conditions: probe 0.2 μg/ml
Experimental: A) PP1M 5 μg (track 1), 10 μg bacterial extract containing M110-(R714-I1004) (track 2), MBP-M110-(R714-I004) 1 μg (track 3), MBP-M110-(R714-L934) 1 μg (track 4), MBP-M110-(K933-I1004) 1 μg (track 5), MBP 1 μg (track 6), M110-(M1-E309) 2 μg (lane 7) and M110-(M1-S477) 2 μg (track 8) were run on a 12% SDS/polyacrylamide gel and stained with Coomassie Blue. B) same as A) except that 10-fold less protein was electrophoresed and after transfer to nitrocellulose the proteins were probed with digoxigenin-labelled M21 subunit (0.2 μg/ml). C) same as B) except that, after electrophoresis, the proteins were transferred to nitrocellulose and probed with digoxigenin-labelled M21-(M1-L146) (0.2 μg/ml).
A) GST-M21 5 μg (track 1), M21 5 μg (track 2), M21-(M1-L146) 5 μg (track 3), M21-(M1-E110) 20 μg (track 4) and M21-(E110-K186) 5 μg (track 5) were run on 16.5% polyacrylamide gels and stained with Coomassie Blue. The marker proteins ovalbumin (43 kDa) and carbonic anhydrase (29 kDa) are indicated. B) GST-M21 0.5 μg (track 1), M21 0.5 μg (track 2), M21-M1-L146) 0.5 μg (track 3), M21-(M1-E110) 5 μg (track 4) and M21-(E110-K186) 5 μg (track 5) were electrophoresed as in A) and after transfer to nitrocellulose the blots were probed with digoxigenin-labelled MBP-M110-(K933-I1004) (0.2 μg/Ml). C) same as B) except that, after electrophoresis, the proteins were transferred to nitrocellulose and probed with digoxigenin-labelled M21 subunit (0.2 μg/ml).
PP1M (0.5 μAg) was electrophoresed on a 12% SDS/polyacrylamide gel, transferred to nitrocellulose and probed with digoxigenin-labelled M21 subunit (0.2 μg/ml) (track 1) or digoxigenin-labelled M21-(M1-L146) (0.2 μg/ml) (track 2). The positions of the M110 subunit, the M21 subunit and PP1c are marked.
Proteins were labelled with digoxigenin and Far Western analyses carried out as described, except that the digoxigenin-labelled probe was used at a concentration of 0.2 μg/ml instead of 2 μg/ml. SDS/polyacrylamide gel electrophoresis was carried out on 7.5-15% gels according to Laemmli and on 16.5% gels according to Schagger and von Jagow. Protein was estimated according to Bradford.

[1] = tested on: MLC20 and glycogen phosphorylase; test: MLC20 phosphatase:phosphorylase phosphatase activity ratio of PP1 preparations; assay type: biochemical
Experimental: The M110 and M21 subunits are marked. The activity ratio, MLC20 phosphatase (MP):phosphorylase phosphatase (PhP) of the two preparations is also shown. Similar results were obtained in three different experiments. The activity ratio MP:PhP of PP1c is 0.07.
(§1) ^32P-labelled rabbit skeletal muscle phosphorylase a (containing 1.0 mol phosphate per mol subunit) was prepared by phosphorylation with phosphorylase kinase, ^32P-labelled rabbit skeletal muscle glycogen synthase (containing 1.5 mol/mol subunit in the sites 3 region) was prepared by phosphorylation with glycogen synthase kinase-3 [24]). ^32P-labelled chicken gizzard MLC20 and ^32P-labelled chicken gizzard heavy meromyosin (containing 1.0 mol phosphate per mol subunit) were prepared by phosphorylation with smooth muscle myosin light chain kinase. The dephosphorylation of phosphorylase a (10 μM), glycogen synthase (1 μM) and MLC20 (1 μM) and heavy meromyosin (1 μM) was carried out as in [24]. One unit of activity (U) was that amount which released […] of phosphate in one minute.
PP1M (0.01 ml, 0.4U/ml) was dissociated by incubation for 30 minutes with 500 μM arachidonic acid and then for 30 minutes with 0.08 ml of packed Protein G-Sepharose coupled to 0.08 mg of affinity purified anti-M21 antibody. The Protein G-Sepharose was pelleted, and the supernatant diluted at least 15-fold to allow the M110 subunit and PP1c to recombine. […]

myosin = target: T1, myosin (Gallus gallus, UniProt P10587); test: Myosin binding assay (pelleting with myosin); design: species or system chicken; conditions: myosin 1 μM, 15 min 0° C.
T1 construct: from tissue; host or cells: chicken gizzard
T1 sequence (P10587 whole entry): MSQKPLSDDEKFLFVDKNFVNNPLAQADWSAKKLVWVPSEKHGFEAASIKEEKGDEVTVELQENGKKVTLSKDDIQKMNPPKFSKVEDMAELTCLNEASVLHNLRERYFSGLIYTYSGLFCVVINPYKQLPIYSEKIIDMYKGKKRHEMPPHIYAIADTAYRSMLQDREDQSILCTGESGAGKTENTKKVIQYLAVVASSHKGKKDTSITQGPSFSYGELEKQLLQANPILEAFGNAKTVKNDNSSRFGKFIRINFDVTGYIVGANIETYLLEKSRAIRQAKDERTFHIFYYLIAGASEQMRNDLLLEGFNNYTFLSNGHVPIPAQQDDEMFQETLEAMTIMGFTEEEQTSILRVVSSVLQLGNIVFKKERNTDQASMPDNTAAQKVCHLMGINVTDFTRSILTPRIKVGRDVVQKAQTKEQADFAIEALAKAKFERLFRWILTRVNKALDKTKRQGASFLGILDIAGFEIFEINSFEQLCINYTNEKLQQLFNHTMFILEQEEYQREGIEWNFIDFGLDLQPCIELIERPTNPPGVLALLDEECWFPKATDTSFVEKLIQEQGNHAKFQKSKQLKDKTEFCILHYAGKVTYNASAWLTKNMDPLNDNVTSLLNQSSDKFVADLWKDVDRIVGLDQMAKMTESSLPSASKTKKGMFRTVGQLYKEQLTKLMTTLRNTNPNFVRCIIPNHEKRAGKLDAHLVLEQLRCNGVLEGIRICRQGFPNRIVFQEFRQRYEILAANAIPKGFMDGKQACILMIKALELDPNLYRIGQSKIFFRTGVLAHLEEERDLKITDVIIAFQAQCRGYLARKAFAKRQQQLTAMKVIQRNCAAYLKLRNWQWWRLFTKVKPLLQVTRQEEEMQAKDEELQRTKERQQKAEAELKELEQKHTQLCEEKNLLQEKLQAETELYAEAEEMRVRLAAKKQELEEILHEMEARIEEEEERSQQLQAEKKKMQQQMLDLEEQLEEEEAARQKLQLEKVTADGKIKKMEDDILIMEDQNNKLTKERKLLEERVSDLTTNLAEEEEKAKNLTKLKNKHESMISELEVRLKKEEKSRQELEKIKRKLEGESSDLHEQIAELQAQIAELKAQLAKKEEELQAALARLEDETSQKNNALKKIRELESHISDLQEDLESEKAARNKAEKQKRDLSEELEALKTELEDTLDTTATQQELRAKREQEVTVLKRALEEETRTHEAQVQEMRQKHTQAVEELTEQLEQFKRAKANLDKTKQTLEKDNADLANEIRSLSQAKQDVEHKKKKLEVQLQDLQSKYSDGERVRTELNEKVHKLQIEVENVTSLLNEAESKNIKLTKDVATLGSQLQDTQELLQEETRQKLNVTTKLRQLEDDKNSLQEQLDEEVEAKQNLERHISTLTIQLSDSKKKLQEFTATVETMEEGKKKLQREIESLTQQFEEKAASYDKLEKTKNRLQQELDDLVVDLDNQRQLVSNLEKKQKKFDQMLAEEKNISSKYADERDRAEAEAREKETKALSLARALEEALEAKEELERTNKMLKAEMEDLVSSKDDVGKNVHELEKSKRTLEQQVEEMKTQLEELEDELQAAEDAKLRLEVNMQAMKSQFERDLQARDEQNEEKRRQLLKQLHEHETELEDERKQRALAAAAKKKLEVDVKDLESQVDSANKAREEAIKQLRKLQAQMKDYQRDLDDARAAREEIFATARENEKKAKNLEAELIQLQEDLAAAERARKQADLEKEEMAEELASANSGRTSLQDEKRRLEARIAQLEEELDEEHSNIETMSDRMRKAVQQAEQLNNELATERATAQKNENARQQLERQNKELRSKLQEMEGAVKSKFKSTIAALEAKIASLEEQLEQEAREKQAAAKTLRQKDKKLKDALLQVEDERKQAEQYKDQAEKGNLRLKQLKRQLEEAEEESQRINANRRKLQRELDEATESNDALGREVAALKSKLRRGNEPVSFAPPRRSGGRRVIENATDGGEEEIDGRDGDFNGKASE
T1 sequence (P02612 whole entry partner): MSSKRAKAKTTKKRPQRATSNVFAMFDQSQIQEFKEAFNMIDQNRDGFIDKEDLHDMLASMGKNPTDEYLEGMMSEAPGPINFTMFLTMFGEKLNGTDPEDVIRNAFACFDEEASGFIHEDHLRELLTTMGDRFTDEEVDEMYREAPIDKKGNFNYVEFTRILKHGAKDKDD
T1 sequence (P02607 whole entry partner): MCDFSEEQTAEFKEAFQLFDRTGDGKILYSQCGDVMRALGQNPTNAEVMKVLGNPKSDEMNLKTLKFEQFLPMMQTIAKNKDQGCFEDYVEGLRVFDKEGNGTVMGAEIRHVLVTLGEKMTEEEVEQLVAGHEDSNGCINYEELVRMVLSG
In short: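 PP1M, PP1c, PP1M(ΔM21) or M110 fragments (30 nM; M110 fragments and M21 at 100 nM) incubated 15 min at 0° C with 1 μM myosin in 10 mM Hepes pH 7.5, 50 mM KCl, 5 mM MgCl2, then centrifuged 2 min at 13,000×g. Supernatant, pellet and total analysed by immunoblot or P-light chain phosphatase activity.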

PP1GL = test: Phosphorylase phosphatase activity of PP1GL (hepatic glycogen particles); assay type: biochemical, rat; conditions: hepatic glycogen particles containing PP1-GL
Experimental: Hepatic glycogen particles were diluted in assay buffer to 0.6 phosphorylase phosphatase (PhP) mU per ml, incubated for 15 minutes at 30° C. with GM-(G63-T93) (closed circles), GM-(G63-K80) (open circles) or GM-(G63-N75) (closed triangles) and assayed as described in Example 1. The open triangles show the effect of GM-(G63-N75) which had been phosphorylated at Ser67 by PKA (pGM-(G63-N75)). Similar results were obtained in four experiments.
(A) Hepatic glycogen protein particles containing PP1-GL were diluted and incubated for 15 min at 30° C. with the indicated concentrations of either M110[M1-F38] (open circles) or M110[M1-K35] (closed circles) and the phosphatase reactions were initiated by addition of ^32P-labelled glycogen phosphorylase. The results are expressed as a percentage of the activity determined in control incubations where the M110 peptides were omitted. Similar results were obtained in three separate experiments. (B) The experiment was carried out as in (A), except that the peptide GM[G63-N75] (“wild type”, WT) and variants in which either Val 66 (V66A) (closed triangles) or Phe 68 (F68A) (closed circles) were changed to Ala, were used instead of the M110 peptides. Similar results were obtained in three separate experiments.
The myosin-associated form of PP1 (PP1M) was from chicken gizzard and the glycogen-associated form of PP1 (PP1G) from rabbit skeletal muscle. […]

PP1c [2] = target: T2, PP1c (Oryctolagus cuniculus, UniProt P62143); test: MLC20 (myosin P-light chain) phosphatase activity of PP1c; assay type: biochemical
T2 construct: from tissue; host or cells: rabbit skeletal muscle (PP1G dissociated with LiBr)
T2 sequence (P62143 whole entry): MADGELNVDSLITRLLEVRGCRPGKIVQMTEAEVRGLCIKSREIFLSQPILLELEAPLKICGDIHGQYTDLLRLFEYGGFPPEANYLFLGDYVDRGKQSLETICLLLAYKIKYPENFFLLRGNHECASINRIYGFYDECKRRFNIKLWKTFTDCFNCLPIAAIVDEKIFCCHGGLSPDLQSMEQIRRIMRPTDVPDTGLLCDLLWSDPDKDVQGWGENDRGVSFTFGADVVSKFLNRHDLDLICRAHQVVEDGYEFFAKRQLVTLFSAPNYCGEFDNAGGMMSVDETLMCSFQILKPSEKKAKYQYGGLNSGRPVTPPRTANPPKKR
Experimental: (§2) A,B; Effects of M110-(M1-E309) (closed circles), M110-(M1-F38) (open circles) and M110-(D39-E309) (open triangles) on the MLC20 phosphatase […] and phosphorylase phosphatase (B) activities of PP1c were measured after incubating PP1c for 15 minutes at 30° C. with each fragment. The results are presented as a percentage of those obtained in experiments where the M110 fragments were omitted.
(§3) C,D; The effect of M110-(M1-A150) (open circles) and M110-(L24-Y496) (closed circles) on the MLC20 phosphatase (C) and phosphorylase phosphatase (D) activities of PP1c were measured as in A,B.
(A) The MLC20 phosphatase activity of PP1c was assayed after incubation for 15 minutes at 30° C. in the presence or absence of 1 μM GM-(G63-T93) and either 0.1 μM M110-(M1-F38) or 0.1 nM M110-(M1-E309).
(1-38, open circles) or M110[M1-K35] (1-35, closed circles) were incubated with PP1c for 15 min at 30° C. and reactions started with the ^32P-labelled MLC20 substrate. The results are expressed as a % of the activity determined in control incubations where the M110 peptides were omitted (100%). Similar results were obtained in three separate experiments.
(§4) The myosin-associated form of PP1 (PP1M) was from chicken gizzard and the glycogen-associated form of PP1 (PP1G) from rabbit skeletal muscle. The β isoform of PP1c was released from PP1G by incubation for 2 hours in 2M LiBr, then purified by gel-filtration on a 30×1 cm column of Superose 12 (Pharmacia, Milton Keynes, U.K.) in the presence of 0.5M LiBr. Glycogen protein particles from rat liver were used as the source of hepatic PP1G Digoxygenin-labelled PP1c (γ1-isoform, hereafter termed PP1) was prepared as in [9]. GL was expressed in E. coli as a glutathione-S-transferase (GST) fusion protein [7], termed GST-GL. The catalytic subunit of PP2A from bovine heart (PP2AC) was provided by Dr R. MacKintosh in this Unit. The phosphorylatable myosin light chain (MLC20) and heavy meromyosin from chicken gizzard were a gift from Dr M. Ikebe (Case Western Reserve University, Cleveland, USA). Thrombin and benzamidine-Agarose were purchased from Sigma (Poole, UK).
as §1
(§5) PP1c was isolated from the rabbit skeletal muscle PP1-GM complex as described previously (Johnson et al, 1996). Glycogen particles isolated from rat liver (Schelling el al, 1988) served as the source of PP1-GL. The dephosphorylation of glycogen phosphorylase (10 μM) and the isolated MLC20 of smooth muscle myosin (1 μM) by PP1c was carried out as described previously (Cohen et al., 1988; Alessi et al., 1992).
^32P-labelled myosin P-light chains containing 1.0 mol phosphate per mol subunit was prepared by phosphorylation with smooth muscle myosin light chain kinase. The dephosphorylation of myosin P-light chain (1 μM) was carried out as in [4] and one unit of activity (U) was that amount which catalysed the release of 1 μmole of phosphate in one min. When assaying PP1M in immunoprecipitates from the myofibrillar extracts, the tubes were shaken continuously and 3 nM okadaic acid was included to inhibit any PP2A present.

PP1c [3] = target: T2, PP1c; test: Phosphorylase phosphatase activity of PP1c; assay type: biochemical, rabbit
Experimental: as §2, §3
(B) The phosphorylase phosphatase activity of PP1c was assayed as in A in the presence or absence of 1 μM GM-(G63-T93) and 1.0 nM M110-(M1-E309). The results are presented (SEM for three experiments) as a percentage of the PP1c activity measured in the absence of GM-(63-T93), M110-(M1-F38) or M110-(M1-E309).
as §4, §1, §5

PP1 = conditions: Beullens et al., 1992; read-out: inhibitory constant for PP1; cited from earlier work

Chain of M21 subunit (as listed by the source): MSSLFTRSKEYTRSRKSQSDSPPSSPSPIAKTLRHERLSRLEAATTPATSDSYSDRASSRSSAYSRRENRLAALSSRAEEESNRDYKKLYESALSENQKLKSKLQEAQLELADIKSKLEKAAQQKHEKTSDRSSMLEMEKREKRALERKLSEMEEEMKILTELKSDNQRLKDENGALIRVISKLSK

B1: PP1c: catalytic subunit of PP1 (protein)
chain: ADGELNVDSLITRLLEVRGCRPGKIVQMTEAEVRGLCIKSREIFLSQPILLELEAPLKICGDIHGQYTDLLRLFEYGGFPPEANYLFLGDYVDRGKQSLETICLLLAYKIKYPENFFLLRGNHECASINRIYGFYDECKRRFNIKLWKTFTDCFNCLPIAAIVDEKIFCCHGGLSPDLQSMEQIRRIMRPTDVPDTGLLCDLLWSDPDKDVQGWGENDRGVSFTFGADVVSKFLNRHDLDLICRAHQVVEDGYEFFAKRQLVTLFSAPNYCGEFDNAGGMMSVDETLMCSFQILKPSEKKAKYQYGGLNSGRPVTPPRTANPPKKR
recognised by digoxigenin-labelled M21 subunit in Far Western blotting (M21 subunit): not | MLC20 phosphatase:phosphorylase phosphatase activity ratio [1]: 0.07 | binding to myosin (myosin): neither PP1c (FIG. 22) nor bovine serum albumin (data not shown) bound to myosin

B2: M110-(D39-E309): rat aorta M110 fragment, residues 39-309, containing the seven ankyrin repeats (protein, UniProt Q10728 39-309, looked up, fragment)
chain: DDGAVFLAACSSGDTDEVLKLLHRGADINYANVDGLTALHQACIDDNVDMVKFLVENGANINQPDNEGWIPLHAAASCGYLDIAEFLIGQGAHVGAVNSEGDTPLDIAEEEAMEELLQNEVNRQGVDIEAARKEEERIMLRDARQWLNSGHISDVRHAKSGGTALHVAAAKGYTEVLKLLIQAGYDVNIKDYDGWTPLHAAAHWGKEEACRILVDNLCDMETVNKVGQTAFDVADEDILGYLEELQKKQNLLHSEKRDKKSPLIESTANME
effect on the phosphorylase phosphatase activity of PP1GL (PP1GL): can enhance the phosphorylase activity of PP1GL | effect on the MLC20 phosphatase activity of PP1c (PP1c [2]): failed to stimulate the MLC20 phosphatase activity of PP1c | effect on the phosphorylase phosphatase activity of PP1c (PP1c [3]): did not inhibit the phosphorylase phosphatase activity of PP1c | effect on the phosphorylase phosphatase activity of PP1c (PP1c [3]; each peptide individually, at concentrations up to 1 μM): no effect

B3: NIPP-1: nuclear inhibitor of PP1 (protein, UniProt Q12972 1-351, looked up)
Nuclear inhibitor of protein …: MAAAANSGSSLPLFDCPTWAGKPPPGLHLDVVKGDKLIEKLIIDEKKYYLFGRNPDLCDFTIDHQSCSRVHAALVYHKHLKRVFLIDLNSTHGTFLGHIRLEPHKPQQIPIDSTVSFGASTRAYTLREKPQTLPSAVKGDEKMGGEDDELKGLLGLPEEETELDNLTEFNTAHNKRISTLTIEEGNLDIQRPKRKRKNSRVTFSEDDEIINPEDVDPSVGRFRNMVQTAVVPVKKKRVEGPGSLGLEESGSRRMQNFAFSGGLYGGLPPTHSEAGSQPHGIHGTALIGGLPMPYPNLAPDVDLTPVVPSAVNMNPAPNPAVYNPEAVNEPKKKKYAKEAWPGKKPTPSLLI
Ki (PP1): 1 pM
